Test results from article PMC6059731 (Science Advances, 2018).
Ends that are not written are not given here.

Biological target: the molecule itself
Experiment: SEC-SAXS

Protein: GIGDPVTCLKSGAICHPVFCPRRYKQIGTCGLPGTKCCKKP (natural protein, UniProt O15263 24-64, looked up, ends and bridges not checked; cysteine pairing not given here) [Human β-defensin 2 (HBD-2)]
- monomer/dimer ratio (dimer part of 70:30): 30
